Results taken from paper PMC8097335, “A High‐Affinity Calmodulin‐Binding Site in the CyaA Toxin Translocation Domain is Essential for Invasion of Eukaryotic Cells” (Advanced Science, 2021).

Molecular target: T1, calmodulin (calcium-loaded: holo-CaM) (UniProt P0DP23)
T1 construct: also called apo-CaM (without calcium)
Experiment: other fluorescence titration + ITC
Details: both partners purified

B1: P454 H477S-I479A peptide (peptide)
peptide: ASAHWGQRALQGAQAVAAAQRLVSAAALMTQ
fold decrease of affinity for CaM against P454: ~20 fold

B2: P454 L475A-H477S-I479A peptide (peptide)
peptide: ASAHWGQRALQGAQAVAAAQRAVSAAALMTQ
fold decrease of affinity for CaM against P454: ~20 fold

B3: P454 R12E peptide (P454 with R461E and R474E) (peptide)
peptide: ASAHWGQEALQGAQAVAAAQELVHAIALMTQ
notes: also called TAMRA-P454 R12E
Kd: 22.7 µM

B4: P454 W458A-L463A peptide (peptide)
peptide: ASAHAGQRAAQGAQAVAAAQRLVHAIALMTQ
fold decrease of affinity for CaM against P454: 4 fold
